This series concerns the molecule itself. Put plainly: SEC. On the technique in general: Size exclusion chromatography separates by hydrodynamic size, large species first.

Numbering of substitutions follows the chain as printed. Names and notes keep the numbering of the source.

B1: MscSΔW L105W (W16Y/W240F/W251F/L105W), small mechanosensitive channel MscS-H6 (natural protein)
chain: MEDLNVVDSINGAGSYLVANQALLLSYAVNIVAALAIIIVGLIIARMISNAVNRLMISRKIDATVADFLSALVRYGIIAFTLIAALGRVGVQTASVIAVLGAAGWAVGLALQGSLSNLAAGVLLVMFRPFRAGEYVDLGGVAGTVLSVQIFSTTMRTADGKIIVIPNGKIIAGNIINFSREPVRRNEFIIGVAYDSDIDQVKQILTNIIQSEDRILKDREMTVRLNELGASSINFVVRVFSNSGDLQNVYFDVLERIKREFDAAGISFPYPQMDVNFKRVKEDKAA
As for B1, the stoichiometry N (in general, the number of molecules, sites or subunits per partner or assembly) was 7.

B2: MscSΔW L105W/A106V (W16Y/W240F/W251F/L105W/A106V), small mechanosensitive channel MscS-H6 (natural protein)
chain: B1 chain with A106V
Regarding B2, the “stoichiometry N” value is 7.

Values taken from publication PMC2820766 (The Journal of Biological Chemistry, 2009).
